Results as given in publication PMC2907309.

Target: MazF (E. coli) (UniProt P0AE70)
UniProt P0AE70, sequence (P0AE70 whole entry): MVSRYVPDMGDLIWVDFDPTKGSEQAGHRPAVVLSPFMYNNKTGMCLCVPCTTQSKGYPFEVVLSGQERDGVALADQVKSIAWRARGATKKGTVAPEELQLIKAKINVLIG

**Q.** Which results are given for “His-MazE (from UniProt P0AE72 1-82) (natural protein)”?
**A.** recovery of Luc production (end-point) in a cell-free reaction made of MazF crude extract, against the concentration of pure MazE added: 0.6 µM; recovery of deGFP production (end-point) in a cell-free reaction made of MazF crude extract, against the concentration of pure MazE added: 0.4 µM
